Measured values from patent CN117567617A.

Biological target: 人CLDN18.2 (human claudin18.2) (human) (UniProt P56856)
Assay: cell-based or functional assay

- CDC活性 EC50 (Presto Blue, complement): 10.9 µg/mL
B1: 全人源抗CLDN18.2抗体2A2 (CLDN-BC-2A2-hH1) (antibody, V domains shown)
VH: QVQLQQWGPGLVKPSQTLSLTCTVSGGSISSVGYYWSWIRQHPGQGLEWVGYIYYSGGTYYNPSLKSRVTISLDTSKNQFSLKLTSVTAADTAVYYCASYGSVSPYYYYYGMDVWGQGTTVTVSS
VL: DIVMTQSPSSVSASVGDRVTITCRASQGISSWLAWYQQKPGKAPNLLISAASSLQSGVPSRFSGNGSGTDFTLTISSLQPEDFASYYCQQANSFPITFGQGTRLEIK
